The values below come from patent US20100113367A1 (IPSEN PHARMA S A S, published 2010).

Numbered stars: 1 amine (or outer) side, 2 acyl side, 3 side chain; on linkers, the order of the positions; unused ones are H or OH. Bridge positions count the residues as written; N and C are the ends. Square brackets hold non-standard residues; d marks the D form. Pipz(1-CH2CO,4-CH2CH2NH) = O=C(CN1CCN(CCN[*:1])CC1)[*:2]; Tyr(3-I) = N[C@@H](Cc1ccc(O)c(I)c1)C(=O)O; Suc = O=C(CCC(=O)[*:2])[*:1]; Nle = CCCC[C@H](N)C(=O)O; rvGly = not defined here; Glut = not defined here; Abu = CC[C@H](N)C(=O)O; Apn = not defined here; AEEA = NCCOCCOCC(=O)O; Ahx = NCCCCCC(=O)O; GABA = NCCCC(=O)O; βAla = NCCC(=O)O

Experiment [1] deals with native bombesin/GRP receptor of AR42J rat pancreas cells (rat) (UniProt P52500). The experiment in a line: radioligand displacement, AR42J rat pancreas cell membranes, tracer [125I-Tyr4]bombesin. (In general: In a radioligand displacement assay an active substance lowers the binding of a labelled ligand.)
Chain of native bombesin/GRP receptor of AR42J rat pancreas cells (rat) (P52500 whole entry): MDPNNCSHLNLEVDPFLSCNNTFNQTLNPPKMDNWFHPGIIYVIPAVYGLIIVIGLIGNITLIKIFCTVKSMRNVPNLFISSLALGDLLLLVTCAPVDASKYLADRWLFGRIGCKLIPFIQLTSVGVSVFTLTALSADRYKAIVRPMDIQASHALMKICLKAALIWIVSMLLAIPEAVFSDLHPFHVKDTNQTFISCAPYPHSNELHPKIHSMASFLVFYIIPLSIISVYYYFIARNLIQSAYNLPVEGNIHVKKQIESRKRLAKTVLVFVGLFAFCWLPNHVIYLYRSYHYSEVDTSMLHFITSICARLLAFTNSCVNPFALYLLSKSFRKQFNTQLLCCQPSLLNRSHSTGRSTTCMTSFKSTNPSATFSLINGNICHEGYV
For experiment [2], the target named is T1, native bombesin/GRP receptor of AR42J rat pancreas cells (rat, UniProt P52500 1-384).
T1 construct: whole, on cells; Used as membrane homogenate of AR42J cells; also called bombesin receptor
T1 sequence (P52500 whole entry): as above
The description is as above. The method, then: The homogenates were washed twice by centrifugation (39,000 g/10 minutes) and the final pellets were resuspended in 50 mM Tris-HCl containing 2.5 mM MgCl₂ and 0.1% BSA. For the assay, aliquots of membrane homogenate (0.4 ml) were incubated with 0.05 nM [¹²⁵I-Tyr4]bombesin (2200 Ci/mmol) (New England Nuclear®, Boston, Mass., U.S.A.) with and without 0.05 ml of unlabeled competing test peptides. After a 30 minute incubation period at 4° C., the bound [¹²⁵I-Tyr4]bombesin was separated from the free bombesin by rapid filtration through GF/B filters (Brandel®, Gaithersburg, Md., U.S.A.) which had been previously soaked in 0.3% polyethyleneimine. The filters were then washed three times with 5-ml aliquots of ice-cold 50 mM Tris-HCl. The bound radioactivity trapped on the filters was counted by gamma spectrometry (Wallac LKB®, Gaithersburg, Md., U.S.A.). Specific binding was defined as the total [¹²⁵I-Tyr4]bombesin bound minus that bound in the presence of 1000 nM bombesin (Bachem®, Torrence, Calif., U.S.A>).

The target of experiment [3] is human somatostatin receptor subtype hSSTR-2 (human) (UniProt P30874). In words: radioligand displacement, CHO-K1 hSSTR-2 membranes, tracer m39.
Chain of human somatostatin receptor subtype hSSTR-2 (human) (P30874 whole entry): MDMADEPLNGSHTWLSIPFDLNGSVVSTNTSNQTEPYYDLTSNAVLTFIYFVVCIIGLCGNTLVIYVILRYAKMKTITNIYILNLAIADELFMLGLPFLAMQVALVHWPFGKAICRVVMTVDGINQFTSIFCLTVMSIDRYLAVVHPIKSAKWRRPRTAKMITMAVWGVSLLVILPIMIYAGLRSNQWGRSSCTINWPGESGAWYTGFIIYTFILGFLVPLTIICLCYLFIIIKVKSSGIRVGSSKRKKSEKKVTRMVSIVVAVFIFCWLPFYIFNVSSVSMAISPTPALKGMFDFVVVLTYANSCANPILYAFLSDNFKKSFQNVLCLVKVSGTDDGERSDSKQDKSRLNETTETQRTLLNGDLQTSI
The target of experiment [4] is human somatostatin receptor subtype hSSTR-3 (human) (UniProt P32745). The experiment in a line: radioligand displacement, CHO-K1 hSSTR-3 membranes, tracer [125I-Tyr11]SRIF-14.
Chain of human somatostatin receptor subtype hSSTR-3 (human) (P32745 whole entry): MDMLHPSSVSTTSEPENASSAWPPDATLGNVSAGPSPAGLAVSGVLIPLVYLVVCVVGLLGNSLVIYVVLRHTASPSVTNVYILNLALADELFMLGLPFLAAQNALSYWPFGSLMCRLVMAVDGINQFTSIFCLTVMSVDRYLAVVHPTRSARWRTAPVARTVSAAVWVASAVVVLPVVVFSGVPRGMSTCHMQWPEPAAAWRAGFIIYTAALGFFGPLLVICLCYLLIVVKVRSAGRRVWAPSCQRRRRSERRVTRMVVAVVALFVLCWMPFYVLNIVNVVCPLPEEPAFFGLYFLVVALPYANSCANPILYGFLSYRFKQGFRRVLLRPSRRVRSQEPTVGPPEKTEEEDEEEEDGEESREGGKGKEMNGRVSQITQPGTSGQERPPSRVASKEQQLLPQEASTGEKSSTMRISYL
The target of experiment [5] is human somatostatin receptor subtype hSSTR-5 (human) (UniProt P35346). The experiment in a line: radioligand displacement, CHO-K1 hSSTR-5 membranes, tracer m40.
Chain of human somatostatin receptor subtype hSSTR-5 (human) (P35346 whole entry): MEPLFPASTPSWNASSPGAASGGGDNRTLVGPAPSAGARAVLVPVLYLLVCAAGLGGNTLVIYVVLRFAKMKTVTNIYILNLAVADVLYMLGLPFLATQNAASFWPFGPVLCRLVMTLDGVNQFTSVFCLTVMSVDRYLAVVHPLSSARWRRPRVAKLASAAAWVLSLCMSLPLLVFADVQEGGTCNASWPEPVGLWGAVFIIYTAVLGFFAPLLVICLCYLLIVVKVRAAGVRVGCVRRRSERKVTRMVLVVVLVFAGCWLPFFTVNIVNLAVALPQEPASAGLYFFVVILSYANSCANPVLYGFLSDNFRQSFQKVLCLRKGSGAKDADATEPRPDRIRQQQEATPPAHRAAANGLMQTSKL

B1: Camptothecin-rvGly-Suc-(Doc)4-Aepa-Leu-Gaba-Gln-Trp-Ala-Val-β-Ala-His-Leu-Nle-NH2 (peptide)
peptide: Camptothecin-[rvGly][Suc][AEEA][AEEA][AEEA][AEEA][Pipz(1-CH2CO,4-CH2CH2NH)]L[GABA]QWAV[βAla]HL[Nle]-NH2
By Ki is commonly meant a dissociation constant, usually derived from enzyme kinetics or from competition with a known ligand. A high value points to weaker binding. With B1, in experiment [1], the Ki was determined as 18.2 nM.

B2: Camptothecin-rvGly-Suc-(Doc)4-Aepa-Ahx-Gln-Trp-Ala-Val-β-Ala-His-Leu-Nle-NH2 (peptide)
peptide: Camptothecin-[rvGly][Suc][AEEA][AEEA][AEEA][AEEA][Pipz(1-CH2CO,4-CH2CH2NH)][Ahx]QWAV[βAla]HL[Nle]-NH2
With B2, the Ki in experiment [1] worked out at 1.9 nM. This Ki is about 9.6-fold lower than that of the molecule before.

B3: Camptothecin-rvGly-Suc-(Doc)4-Aepa-Apn-Asn-Gln-Trp-Ala-Val-β-Ala-His-Leu-Nle-NH2 (peptide)
peptide: Camptothecin-[rvGly][Suc][AEEA][AEEA][AEEA][AEEA][Pipz(1-CH2CO,4-CH2CH2NH)][Apn]NQWAV[βAla]HL[Nle]-NH2
modifications: reading uncertain; also: printed as Camptothecin-rvGly-Suc-(Doc)4-Aepa-Apn-Asn-Gln-Trp-Ala-Val-β-Ala-His-Leu-Nle-NH2
Consider B3, for which, in experiment [1], the Ki turned out to be 4.07 nM. Against the preceding molecule, the Ki is about 2.1-fold higher.

B4: Camptothecin-rvGly-Suc-(Doc)4-Lys-D-Ser-D-Tyr-Gln-Trp-Ala-Val-β-Ala-His-Leu-Nle-NH2 (peptide)
peptide: {Camptothecin-rvGly-Suc-AEEA-AEEA-AEEA-AEEA}-K[dS][dY]QWAV[βAla]HL[Nle]-NH2
modifications: reading uncertain; also: printed as Camptothecin-rvGly-Suc-(Doc)4-Lys-D-Ser-D-Tyr-Gln-Trp-Ala-Val-β-Ala-His-Leu-Nle-NH2
notes: Bombesin analog conjugate
B4 returned an inhibitory constant (Ki) in experiment [2] of 1.45 nM.

B5: Camptothecin-rvGly-Suc-(Doc)4-Aepa-Gaba-D-Ser-D-Tyr-Gln-Trp-Ala-Val-β-Ala-His-Leu-Nle-NH2 (peptide)
peptide: {Camptothecin-rvGly-Suc-AEEA-AEEA-AEEA-AEEA-Pipz(1-CH2CO,4-CH2CH2NH)}-[GABA][dS][dY]QWAV[βAla]HL[Nle]-NH2
modifications: reading uncertain; also: printed as Camptothecin-rvGly-Suc-(Doc)4-Aepa-Gaba-D-Ser-D-Tyr-Gln-Trp-Ala-Val-β-Ala-His-Leu-Nle-NH2
notes: Bombesin analog conjugate
The molecule B5 gave an inhibitory constant (Ki) in experiment [2] of 4.82 nM. This Ki is about 3.3-fold higher than that of the molecule before.

B6: Camptothecin-rvGly-Suc-(Doc)4-Aepa-Nle-Gln-Trp-Ala-Val-β-Ala-His-Leu-Nle-NH2 (peptide)
peptide: Camptothecin-[rvGly][Suc][AEEA][AEEA][AEEA][AEEA][Pipz(1-CH2CO,4-CH2CH2NH)][Nle]QWAV[βAla]HL[Nle]-NH2
Take B6: in experiment [1], the Ki was found to be 4.57 nM.

B7: Camptothecin-rvGly-Glut-(Doc)4-Lys-D-Tyr-D-Tyr-c(Cys-3-(I)Tyr-D-Trp-Lys-Abu-Cys)-Thr-NH2 (peptide)
peptide: {Camptothecin-rvGly-Glut-AEEA-AEEA-AEEA-AEEA}-K[dY][dY]C[Tyr(3-I)][dW]K[Abu]CT-NH2
modifications: disulfide 4-9; reading uncertain
Turning to B7, the Ki in experiment [3] came to 0.1 nM; in experiment [4] it was 94 nM; in experiment [5], 3.86 nM.

B8: Camptothecin-rvGly-Suc-(Doc)4-Aepa-Gaba-Asn-Gln-Trp-Ala-Val-β-Ala-His-Leu-Nle-NH2 (peptide)
peptide: Camptothecin-[rvGly][Suc][AEEA][AEEA][AEEA][AEEA][Pipz(1-CH2CO,4-CH2CH2NH)][GABA]NQWAV[βAla]HL[Nle]-NH2
The molecule B8 came in with a Ki in experiment [1] of 7.65 nM.

B9: Camptothecin-rvGly-Suc-(Doc)4-Arg-D-Ala-D-Tyr-Gln-Trp-Ala-Val-β-Ala-His-Leu-Nle-NH2 (peptide)
peptide: {Camptothecin-rvGly-Suc-AEEA-AEEA-AEEA-AEEA}-R[dA][dY]QWAV[βAla]HL[Nle]-NH2
modifications: reading uncertain; also: printed as Camptothecin-rvGly-Suc-(Doc)4-Arg-D-Ala-D-Tyr-Gln-Trp-Ala-Val-β-Ala-His-Leu-Nle-NH2
notes: Bombesin analog conjugate
The molecule B9 gave a Ki in experiment [2] of 1.1 nM.

B10: Camptothecin-rvGly-Glut-(Doc)4-Lys-D-Tyr-D-Tyr-c(Cys-Phe-Phe-D-Trp-Lys-Thr-Cys)-NH2 (peptide)
peptide: {Camptothecin-rvGly-Glut-AEEA-AEEA-AEEA-AEEA}-K[dY][dY]CFF[dW]KTC-NH2
modifications: disulfide 4-10; reading uncertain
Consider B10, for which the results for the inhibition constant Ki in experiment [3] and in experiment [5] were 9.38 nM and 481 nM, respectively.

B11: Camptothecin-rvGly-Suc-(Doc)4-Aepa-D-Ser-D-Tyr-Gln-Trp-Ala-Val-β-Ala-His-Leu-Nle-NH2 (peptide)
peptide: {Camptothecin-rvGly-Suc-AEEA-AEEA-AEEA-AEEA-Pipz(1-CH2CO,4-CH2CH2NH)}-[dS][dY]QWAV[βAla]HL[Nle]-NH2
modifications: reading uncertain; also: printed as Camptothecin-rvGly-Suc-(Doc)4-Aepa-D-Ser-D-Tyr-Gln-Trp-Ala-Val-β-Ala-His-Leu-Nle-NH2
For B11, the Ki in experiment [1] came to 3.96 nM.

B12: Camptothecin-rvGly-Glut-(Doc)6-Lys-D-Tyr-D-Tyr-c(Cys-3-(I)Tyr-D-Trp-Lys-Abu-Cys)-Thr-NH2 (peptide)
peptide: {Camptothecin-rvGly-Glut-AEEA-AEEA-AEEA-AEEA-AEEA-AEEA}-K[dY][dY]C[Tyr(3-I)][dW]K[Abu]CT-NH2
modifications: disulfide 4-9; reading uncertain
Take B12: the Ki in experiment [3] was 0.36 nM; in experiment [4], 125 nM; in experiment [5], 3 nM.
